Measured values from US20080305501A1.

Molecular target: chimeric receptor comprising mouse TNFR1 external domain (residues 1-210 of SEQ ID NO:1) linked to the transmembrane and intracellular domains of mouse RANK (residues 210-625 of SEQ ID NO:2) (mouse)
Assay: cell-based or functional assay

chimeric receptor comprising mouse TNFR1 external domain (residues 1-210 of SEQ ID NO:1) linked to the transmembrane and intracellular domains of mouse RANK (residues 210-625 of SEQ ID NO:2) (mouse), sequence (chain, as listed by the source mutant): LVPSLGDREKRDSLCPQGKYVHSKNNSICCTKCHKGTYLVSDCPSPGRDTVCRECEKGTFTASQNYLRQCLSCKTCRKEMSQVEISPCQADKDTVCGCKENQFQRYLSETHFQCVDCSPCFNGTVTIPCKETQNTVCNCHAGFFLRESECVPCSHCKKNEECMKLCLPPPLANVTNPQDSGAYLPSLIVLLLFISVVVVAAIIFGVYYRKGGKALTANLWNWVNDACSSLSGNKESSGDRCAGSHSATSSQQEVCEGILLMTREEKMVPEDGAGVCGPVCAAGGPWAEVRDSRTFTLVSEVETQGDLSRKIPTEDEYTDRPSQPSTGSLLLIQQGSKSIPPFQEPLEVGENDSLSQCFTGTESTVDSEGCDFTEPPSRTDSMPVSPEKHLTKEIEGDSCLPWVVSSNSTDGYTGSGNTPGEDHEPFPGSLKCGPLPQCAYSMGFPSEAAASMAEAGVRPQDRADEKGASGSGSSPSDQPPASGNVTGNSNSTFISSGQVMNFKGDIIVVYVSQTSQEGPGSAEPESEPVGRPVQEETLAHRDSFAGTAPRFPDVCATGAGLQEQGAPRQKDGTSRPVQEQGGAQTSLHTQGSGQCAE

Recombinant mouse TNFα (410-TRNC-050, R&D Systems) (from UniProt P06804 80-235) (ligand)
osteoclast formation; lowest TNFα concentration still active: 1 ng/mL
